# Experimental data published in patent US20260201028A1 (SINGAPORE HEALTH SERVICES PTE, published 2026).
# B1: humanized anti-TRPM4 antibody clone A2 (VH1 + VL1) (antibody, human IgG1, kappa, V domains shown)
# VH: QVQLQESGPGLVKPSQTLSLTCTVSGYSITSDYAWNWIRQHPGKGLEWIGYLSYSGVTSYNPSLKGRVTISVDTSKNQFSLKLSSVTAADTAVYYCARKGTYYRYEGSYWYFDVWGQGTTVTVSS
# VL: DIQMTQSPSSLSASVGDRVTITCHANQNIDVWLSWYQQKPGKAPKLLIYKTSNLHTGVPSRFSGSGSGTDFTFTISSLQPEDIATYYCQQGQSYPLTFGGGTKLEIKR
# Target: human TRPM4 (transient receptor potential melastatin 4) in transfected HEK 293 cells (human, UniProt Q8TD43 1-1214)
# Sequence (Q8TD43 whole entry): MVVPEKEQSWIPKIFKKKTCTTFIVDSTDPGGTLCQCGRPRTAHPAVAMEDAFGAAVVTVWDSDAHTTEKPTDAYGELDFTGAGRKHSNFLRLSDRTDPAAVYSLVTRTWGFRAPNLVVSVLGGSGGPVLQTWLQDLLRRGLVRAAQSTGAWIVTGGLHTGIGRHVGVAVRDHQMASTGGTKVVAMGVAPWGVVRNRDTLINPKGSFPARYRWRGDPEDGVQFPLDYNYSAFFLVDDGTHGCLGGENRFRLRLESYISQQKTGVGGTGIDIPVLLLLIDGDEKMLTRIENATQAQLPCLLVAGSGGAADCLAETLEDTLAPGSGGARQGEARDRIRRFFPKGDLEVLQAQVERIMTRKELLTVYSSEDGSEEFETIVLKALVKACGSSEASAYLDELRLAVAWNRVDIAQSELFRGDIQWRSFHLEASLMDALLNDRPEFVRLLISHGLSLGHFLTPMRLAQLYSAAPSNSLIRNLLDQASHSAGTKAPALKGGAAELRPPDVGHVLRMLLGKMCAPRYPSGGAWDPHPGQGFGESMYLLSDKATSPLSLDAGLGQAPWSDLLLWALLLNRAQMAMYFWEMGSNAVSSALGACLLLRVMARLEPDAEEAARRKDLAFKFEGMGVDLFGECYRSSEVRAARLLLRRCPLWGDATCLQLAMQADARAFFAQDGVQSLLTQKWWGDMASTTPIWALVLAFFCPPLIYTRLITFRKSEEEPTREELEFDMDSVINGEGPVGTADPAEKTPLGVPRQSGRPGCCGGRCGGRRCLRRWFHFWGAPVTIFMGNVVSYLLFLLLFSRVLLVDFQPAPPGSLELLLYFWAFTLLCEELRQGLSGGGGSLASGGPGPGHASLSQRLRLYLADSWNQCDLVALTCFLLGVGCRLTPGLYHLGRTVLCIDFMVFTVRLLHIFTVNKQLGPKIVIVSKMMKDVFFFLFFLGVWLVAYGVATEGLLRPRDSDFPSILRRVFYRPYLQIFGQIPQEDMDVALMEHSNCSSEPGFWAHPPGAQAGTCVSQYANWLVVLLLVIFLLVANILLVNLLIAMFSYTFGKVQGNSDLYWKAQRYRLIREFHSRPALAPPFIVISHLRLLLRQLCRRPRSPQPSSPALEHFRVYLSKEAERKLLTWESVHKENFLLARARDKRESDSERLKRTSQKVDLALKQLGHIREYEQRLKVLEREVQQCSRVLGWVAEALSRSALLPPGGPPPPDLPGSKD
# Assay: cell-based or functional assay
binder,measurement,value
B1,"IC50, dose-dependent inhibition of hypoxia-induced TRPM4 current increase",1.23 µg/mL
